This passage reports RhoA activity results from US20120282619.

Series [1] has as its target T1, GTPase regulator associated with FAK (GRAF), Q9UNA1.
T1 chain: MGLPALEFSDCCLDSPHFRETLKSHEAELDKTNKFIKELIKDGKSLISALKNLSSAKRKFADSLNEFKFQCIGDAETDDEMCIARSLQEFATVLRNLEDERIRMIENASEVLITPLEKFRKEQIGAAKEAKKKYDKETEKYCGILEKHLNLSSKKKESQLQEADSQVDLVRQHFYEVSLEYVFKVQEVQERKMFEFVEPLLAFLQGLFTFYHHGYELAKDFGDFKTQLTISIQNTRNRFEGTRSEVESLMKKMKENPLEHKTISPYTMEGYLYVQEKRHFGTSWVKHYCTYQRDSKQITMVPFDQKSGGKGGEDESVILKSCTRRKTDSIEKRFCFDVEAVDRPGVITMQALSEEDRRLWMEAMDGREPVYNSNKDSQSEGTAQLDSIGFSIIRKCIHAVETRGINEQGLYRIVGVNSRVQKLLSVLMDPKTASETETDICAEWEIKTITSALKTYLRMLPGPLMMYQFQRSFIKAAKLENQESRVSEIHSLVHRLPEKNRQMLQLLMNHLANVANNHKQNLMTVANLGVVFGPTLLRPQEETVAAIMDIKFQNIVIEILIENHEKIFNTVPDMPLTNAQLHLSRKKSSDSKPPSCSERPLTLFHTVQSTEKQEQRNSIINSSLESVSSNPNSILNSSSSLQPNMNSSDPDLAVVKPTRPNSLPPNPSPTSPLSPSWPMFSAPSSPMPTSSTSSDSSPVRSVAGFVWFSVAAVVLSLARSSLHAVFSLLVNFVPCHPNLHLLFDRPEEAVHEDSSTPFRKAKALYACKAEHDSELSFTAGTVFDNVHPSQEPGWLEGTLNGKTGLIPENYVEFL

In the next series the target is T2, p190RhoGAP, Q9NRY4.
T2 chain: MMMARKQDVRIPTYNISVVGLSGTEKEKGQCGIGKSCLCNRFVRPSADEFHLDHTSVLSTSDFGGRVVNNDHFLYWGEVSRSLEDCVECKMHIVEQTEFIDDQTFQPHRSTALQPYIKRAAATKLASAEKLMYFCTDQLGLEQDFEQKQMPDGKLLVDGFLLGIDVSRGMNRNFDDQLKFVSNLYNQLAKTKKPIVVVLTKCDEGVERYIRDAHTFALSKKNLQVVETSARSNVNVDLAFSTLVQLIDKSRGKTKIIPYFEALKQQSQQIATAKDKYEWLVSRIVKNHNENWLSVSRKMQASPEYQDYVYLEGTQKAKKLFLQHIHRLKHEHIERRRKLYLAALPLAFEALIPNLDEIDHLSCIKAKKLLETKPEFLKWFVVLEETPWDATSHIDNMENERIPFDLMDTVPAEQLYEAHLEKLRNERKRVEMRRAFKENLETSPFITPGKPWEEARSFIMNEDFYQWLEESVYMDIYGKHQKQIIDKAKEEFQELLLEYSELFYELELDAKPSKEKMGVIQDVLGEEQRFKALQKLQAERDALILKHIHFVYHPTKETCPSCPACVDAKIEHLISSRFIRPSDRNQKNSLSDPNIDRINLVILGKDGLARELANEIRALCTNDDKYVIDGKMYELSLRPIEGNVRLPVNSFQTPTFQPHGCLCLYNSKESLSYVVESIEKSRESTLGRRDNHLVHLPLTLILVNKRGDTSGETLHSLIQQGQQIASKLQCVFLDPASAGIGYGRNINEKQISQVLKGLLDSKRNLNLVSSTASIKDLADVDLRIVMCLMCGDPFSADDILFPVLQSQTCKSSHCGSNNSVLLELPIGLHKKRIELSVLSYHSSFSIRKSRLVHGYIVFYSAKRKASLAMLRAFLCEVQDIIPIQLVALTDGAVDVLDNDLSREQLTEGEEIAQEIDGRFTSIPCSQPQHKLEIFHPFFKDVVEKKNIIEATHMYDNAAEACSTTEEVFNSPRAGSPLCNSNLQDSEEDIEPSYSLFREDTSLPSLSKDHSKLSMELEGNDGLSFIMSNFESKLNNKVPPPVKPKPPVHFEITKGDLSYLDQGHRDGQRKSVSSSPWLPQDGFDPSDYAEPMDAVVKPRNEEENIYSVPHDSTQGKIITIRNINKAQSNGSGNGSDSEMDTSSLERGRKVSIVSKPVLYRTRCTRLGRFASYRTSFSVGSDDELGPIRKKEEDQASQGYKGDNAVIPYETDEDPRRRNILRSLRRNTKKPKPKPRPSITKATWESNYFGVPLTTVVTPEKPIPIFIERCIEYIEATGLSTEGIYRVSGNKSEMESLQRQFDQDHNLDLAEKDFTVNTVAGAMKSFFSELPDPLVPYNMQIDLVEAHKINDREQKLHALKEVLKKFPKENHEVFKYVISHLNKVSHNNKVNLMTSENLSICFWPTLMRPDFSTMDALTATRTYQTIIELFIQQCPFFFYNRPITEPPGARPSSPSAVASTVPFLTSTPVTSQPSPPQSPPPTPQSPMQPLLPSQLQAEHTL

B1: focal adhesion kinase (FAK) (protein)
chain: AAAYLDPNLNHTPNSSTKTHLGTGMERSPGAMERVLKVFHYFESNSEPTTWASIIRHGDATDVRGIIQKIVDSHKVKHVACYGFRLSHLRSEEVHWLHVDMGVSSVREKYELAHPPEEWKYELRIRYLPKGFLNQFTEDKPTLNFFYQQVKSDYMLEIADQVDQEIALKLGCLEIRRSYWEMRGNALEKKSNYEVLEKDVGLKRFFPKSLLDSVKAKTLRKLIQQTFRQFANLNREESILKFFEILSPVYRFDKECFKCALGSSWIISVELAIGPEEGISYLTDKGCNPTHLADFTQVQTIQYSNSEDKDRKGMLQLKIAGAPEPLTVTAPSLTIAENMADLIDGYCRLVNGTSQSFIIRPQKEGERALPSIPKLANSEKQGMRTHAVSVSETDDYAEIIDEEDTYTMPSTRDYEIQRERIELGRCIGEGQFGDVHQGIYMSPENPALAVAIKTCKNCTSDSVREKFLQEALTMRQFDHPHIVKLIGVITENPVWIIMELCTLGELRSFLQVRKYSLDLASLILYAYQLSTALAYLESKRFVHRDIAARNVLVSSNDCVKLGDFGLSRYMEDSTYYKASKGKLPIKWMAPESINFRRFTSASDVWMFGVCMWEILMHGVKPFQGVKNNDVIGRIENGERLPMPPNCPPTLYSLMTKCWAYDPSRRPRFTELKAQLSTILEEEKAQQEERMRMESRRQATVSWDSGGSDEAPPKPSRPGYPSPRSSEGFYPSPQHMVQTNHYQVSGYPGSHGITAMAGSIYPGQASLLDQTDSWNHRPQEIAMWQPNVEDSTVLDLRGIGQVLPTHLMEERLIRQQQEMEEDQRWLEKEERFLKPDVRLSRGSIDREDGSLQGPIGNQHIYQPVGKPDPAAPPKKPPRPGAPGHLGSLASLSSPADSYNEGVKLQPQEISPPPTANLDRSNDKVYENVTGLVKAVIEMSSKIQPAPPEEYVPMVKEVGLALRTLLATVDETIPLLPASTHREIEMAQKLLNSDLGELINKMKLAQQYVMTSLQQEYKKQMLTAAHALAVDAKNLLDVIDQARLKMLGQTRPH
B1: the RhoA activity result is “TM4SF5 expressed in SNU449 cells inhibited RhoA activity, leading to the elongation of cells” in series [1] and “TM4SF5 expressed in SNU449 cells inhibited RhoA activity, leading to the elongation of cells” with p190RhoGAP, Q9NRY4.
